Where two headings read alike, the source gives them in different places.
How the values were obtained:
[1] = biological target: Hfq:S38W (Escherichia coli, UniProt P0A6X3 1-102, S38W); assay: Trp fluorescence quenching
[2] = biological target: T1, Hfq:R16A (Escherichia coli, UniProt P0A6X3 1-102, R16A); assay: fluorescence anisotropy
[3] = biological target: T2, Hfq WT (Escherichia coli, UniProt P0A6X3 1-102); assay: fluorescence anisotropy
[4] = biological target: T2, Hfq WT; assay: fluorescence anisotropy; remark: listed apart in the source
[5] = biological target: T3, Hfq TM (Escherichia coli, UniProt P0A6X3 1-102, R16A;R17A;R19D); assay: fluorescence anisotropy
[6] = biological target: Hfq:R16A,S65C-Cy3 (Escherichia coli, UniProt P0A6X3 1-102, R16A;S65C); assay: stopped-flow FRET
[7] = biological target: T1, Hfq:R16A; assay: fluorescence anisotropy; remark: listed apart in the source
[8] = biological target: T3, Hfq TM; assay: fluorescence anisotropy; remark: listed apart in the source

Binder | binding result [1] | Kd [2] | Kd [4] | also measured
CGAAUUUUUUAAGUGC (ssRNA) [D16 unlabeled] | binds |  |  | 
GUGGUCAGUCGAGUGGAAAAAAAAAAAAAAAAAA (ssRNA) [Oligo CA] | binds |  |  | 
GUGGUCAGUCGAGUGGUUUUUU (ssRNA) [Oligo CU] | binds | 0.07 nM |  | Kd [3]: 0.1 nM
AAAAAAAAAAAAAAAAAA (ssRNA) [A18] |  | 2.3 nM | 13.2 nM | Kd [5]: 16.8 nM
CGAAUUUUUUAAGUGC (ssRNA) [D16] |  |  | 22.5 nM | binding result [6]: binds; Kd [7]: 39.8 nM; Kd [8]: 17.5 nM
